Results from patent publication US20220016183A1, “EXOSOME AND VARIOUS USES THEREOF” (PROSTEMICS CO., LTD., priority 2018, published 2022).

Key:
keratinocytes (HaCaT) = assay: Keratinocyte (HaCaT) proliferation; type: cell-based, human; conditions: 500 ng/ml, 48 hours, DMEM 1% FBS
Protocol: (§1) After 48 hours, a change in cell viability was measured, and results thereof are shown in Tables 8 and 9 below and FIGS. 9 and 10.

human fibroblasts (HDF) = assay: Skin fibroblast (HDF) proliferation; type: cell-based; conditions: 500 ng/ml, 48 hours, DMEM 1% FBS
Protocol: as §1

[1] = tested on: adipose-derived stem cells (ASC); assay: Adipose-derived stem cell (ASC) proliferation, CCK-8; type: cell-based; conditions: positive control of Table 10 (FBS, 10 wt. % in medium), 24 hours
Protocol: Adipocytes derived stem cells (ADCs) were cultured in DMEM medium (Invitrogen) containing 10% fetal calf serum and 1% penicillin/streptomycin at 37° C. and 5% CO2 conditions, and the medium was changed every 3 days. After culturing for 24 hours, the cells were treated under the conditions shown in Table 10 below, and further cultured for 24 hours. After removing the treated material from each cell and dispensing the CCK-8 solution thereto, the cells were incubated at 37° C. in a CO2 incubator for 2 hours, and absorbance was measured at 450 nm.

B1: E1: EGF, positive control at 500 ng/ml (protein, UniProt P01133 23-1207, looked up)
Pro-epidermal growth factor: PQHWSCPEGTLAGNGNSTCVGPAPFLIFSHGNSIFRIDTEGTNYEQLVVDAGVSVIMDFHYNEKRIYWVDLERQLLQRVFLNGSRQERVCNIEKNVSGMAINWINEEVIWSNQQEGIITVTDMKGNNSHILLSALKYPANVAVDPVERFIFWSSEVAGSLYRADLDGVGVKALLETSEKITAVSLDVLDKRLFWIQYNREGSNSLICSCDYDGGSVHISKHPTQHNLFAMSLFGDRIFYSTWKMKTIWIANKHTGKDMVRINLHSSFVPLGELKVVHPLAQPKAEDDTWEPEQKLCKLRKGNCSSTVCGQDLQSHLCMCAEGYALSRDRKYCEDVNECAFWNHGCTLGCKNTPGSYYCTCPVGFVLLPDGKRCHQLVSCPRNVSECSHDCVLTSEGPLCFCPEGSVLERDGKTCSGCSSPDNGGCSQLCVPLSPVSWECDCFPGYDLQLDEKSCAASGPQPFLLFANSQDIRHMHFDGTDYGTLLSQQMGMVYALDHDPVENKIYFAHTALKWIERANMDGSQRERLIEEGVDVPEGLAVDWIGRRFYWTDRGKSLIGRSDLNGKRSKIITKENISQPRGIAVHPMAKRLFWTDTGINPRIESSSLQGLGRLVIASSDLIWPSGITIDFLTDKLYWCDAKQSVIEMANLDGSKRRRLTQNDVGHPFAVAVFEDYVWFSDWAMPSVMRVNKRTGKDRVRLQGSMLKPSSLVVVHPLAKPGADPCLYQNGGCEHICKKRLGTAWCSCREGFMKASDGKTCLALDGHQLLAGGEVDLKNQVTPLDILSKTRVSEDNITESQHMLVAEIMVSDQDDCAPVGCSMYARCISEGEDATCQCLKGFAGDGKLCSDIDECEMGVPVCPPASSKCINTEGGYVCRCSEGYQGDGIHCLDIDECQLGEHSCGENASCTNTEGGYTCMCAGRLSEPGLICPDSTPPPHLREDDHHYSVRNSDSECPLSHDGYCLHDGVCMYIEALDKYACNCVVGYIGERCQYRDLKWWELRHAGHGQQQKVIVVAVCVVVLVMLLLLSLWGAHYYRTQKLLSKNPKNPYEESSRDVRSRRPADTEDGMSSCPQPWFVVIKEHQDLKNGGQPVAGEDGQAADGSMQPTSWRQEPQLCGMGTEQGCWIPVSSDKGSCPQVMERSFHMPSYGTQTLEGGVEKPHSLLSANPLWQQRALDPPHQMELTQ
modifications: Pro-epidermal growth factor
notes: EGF, positive control at 500 ng/ml
HaCaT proliferation rate (%) (keratinocytes (HaCaT)): 160.38%
HDF proliferation rate (%) (human fibroblasts (HDF)): 143.04%
ASC proliferation rate (%) [1]: 186.10%
